# Results taken from US20250042943A1, “FAP DETECTION” (THE UNIVERSITY COURT OF THE UNIVERSITY OF EDINBURGH, priority 2021, published 2025).
# Assays:
# [1] = target: T1, rhFAP (Homo sapiens, UniProt Q12884); experiment: Probe cleavage by recombinant human FAP (fluorescence read); type: biochemical
# T1 sequence (Q12884 1-760): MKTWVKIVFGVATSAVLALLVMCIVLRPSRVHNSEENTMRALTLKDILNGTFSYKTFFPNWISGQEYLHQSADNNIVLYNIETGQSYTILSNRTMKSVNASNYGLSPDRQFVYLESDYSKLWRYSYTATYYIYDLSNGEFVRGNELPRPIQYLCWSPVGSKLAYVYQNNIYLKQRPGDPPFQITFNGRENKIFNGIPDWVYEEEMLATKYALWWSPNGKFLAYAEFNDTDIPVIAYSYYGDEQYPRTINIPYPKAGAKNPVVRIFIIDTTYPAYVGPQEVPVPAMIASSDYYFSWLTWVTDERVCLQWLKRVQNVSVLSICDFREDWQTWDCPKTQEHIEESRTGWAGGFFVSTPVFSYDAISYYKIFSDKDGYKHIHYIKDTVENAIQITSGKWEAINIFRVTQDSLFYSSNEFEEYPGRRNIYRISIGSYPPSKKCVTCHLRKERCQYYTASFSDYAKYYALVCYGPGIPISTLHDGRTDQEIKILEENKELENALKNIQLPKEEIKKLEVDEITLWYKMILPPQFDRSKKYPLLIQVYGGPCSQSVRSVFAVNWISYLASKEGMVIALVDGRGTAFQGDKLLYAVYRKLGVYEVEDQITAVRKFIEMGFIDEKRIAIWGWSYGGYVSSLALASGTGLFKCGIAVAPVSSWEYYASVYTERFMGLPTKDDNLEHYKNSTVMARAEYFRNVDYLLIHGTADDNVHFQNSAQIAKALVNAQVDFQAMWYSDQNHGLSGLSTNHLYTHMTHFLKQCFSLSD
# [2] = target: T2, rhPREP (Homo sapiens, UniProt P48147); experiment: Probe cleavage by recombinant human PREP; type: biochemical; conditions: probe 5 μM, enzyme 0.1 μg/ml, read 480/530 nm
# T2 sequence (P48147 1-710): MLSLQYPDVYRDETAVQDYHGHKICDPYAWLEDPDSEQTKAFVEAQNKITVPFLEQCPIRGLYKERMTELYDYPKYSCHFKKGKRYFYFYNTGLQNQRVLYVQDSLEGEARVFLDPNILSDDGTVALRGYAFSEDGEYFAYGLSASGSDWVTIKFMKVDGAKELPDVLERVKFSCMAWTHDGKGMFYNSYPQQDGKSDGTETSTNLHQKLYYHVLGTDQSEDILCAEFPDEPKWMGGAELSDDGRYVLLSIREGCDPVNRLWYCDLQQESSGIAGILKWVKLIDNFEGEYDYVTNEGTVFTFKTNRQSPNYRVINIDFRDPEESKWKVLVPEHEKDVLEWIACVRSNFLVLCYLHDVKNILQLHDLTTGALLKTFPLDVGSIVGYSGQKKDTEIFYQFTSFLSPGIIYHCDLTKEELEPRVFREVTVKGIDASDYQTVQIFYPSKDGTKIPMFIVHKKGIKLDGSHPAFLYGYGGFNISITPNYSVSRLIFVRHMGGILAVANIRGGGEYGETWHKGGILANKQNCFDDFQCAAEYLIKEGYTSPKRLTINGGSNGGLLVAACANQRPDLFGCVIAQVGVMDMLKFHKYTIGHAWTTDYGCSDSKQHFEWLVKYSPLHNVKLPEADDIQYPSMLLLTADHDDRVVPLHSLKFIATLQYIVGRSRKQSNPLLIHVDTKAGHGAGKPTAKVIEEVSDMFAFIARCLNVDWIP
# [3] = target: rhDPPIV (Homo sapiens, UniProt P27487); experiment: Probe cleavage by recombinant human DPPIV (exopeptidase activity); type: biochemical; conditions: probe 5 μM, enzyme 0.1 μg/ml, read 480/530 nm
# [4] = system: activated neutrophil lysate; experiment: Assessment on activated neutrophil lysate; conditions: data not shown
# [5] = target: T3, FAP (Homo sapiens, UniProt Q12884); conditions: Bainbridge et al; cited from earlier work
# T3 sequence (Q12884 24-760 limits assumed): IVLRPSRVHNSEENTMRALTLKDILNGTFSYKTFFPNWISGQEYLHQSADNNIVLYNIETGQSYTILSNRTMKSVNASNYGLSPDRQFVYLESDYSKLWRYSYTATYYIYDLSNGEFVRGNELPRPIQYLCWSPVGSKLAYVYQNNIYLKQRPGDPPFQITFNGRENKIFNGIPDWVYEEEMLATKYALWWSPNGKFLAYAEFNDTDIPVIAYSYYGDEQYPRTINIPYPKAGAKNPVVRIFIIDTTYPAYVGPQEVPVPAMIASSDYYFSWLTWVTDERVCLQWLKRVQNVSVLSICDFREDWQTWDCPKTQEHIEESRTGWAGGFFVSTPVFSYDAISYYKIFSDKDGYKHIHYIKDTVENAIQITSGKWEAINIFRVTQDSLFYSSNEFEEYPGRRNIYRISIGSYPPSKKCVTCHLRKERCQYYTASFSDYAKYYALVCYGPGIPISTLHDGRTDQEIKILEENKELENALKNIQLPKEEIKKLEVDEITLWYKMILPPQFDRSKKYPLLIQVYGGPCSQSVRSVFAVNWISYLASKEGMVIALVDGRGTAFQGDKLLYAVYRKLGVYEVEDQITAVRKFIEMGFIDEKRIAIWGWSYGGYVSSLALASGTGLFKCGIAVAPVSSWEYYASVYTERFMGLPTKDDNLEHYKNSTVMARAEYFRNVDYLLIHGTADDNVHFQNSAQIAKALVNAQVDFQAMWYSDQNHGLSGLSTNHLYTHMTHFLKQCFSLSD
# rhDPPIV, sequence (P27487 whole entry): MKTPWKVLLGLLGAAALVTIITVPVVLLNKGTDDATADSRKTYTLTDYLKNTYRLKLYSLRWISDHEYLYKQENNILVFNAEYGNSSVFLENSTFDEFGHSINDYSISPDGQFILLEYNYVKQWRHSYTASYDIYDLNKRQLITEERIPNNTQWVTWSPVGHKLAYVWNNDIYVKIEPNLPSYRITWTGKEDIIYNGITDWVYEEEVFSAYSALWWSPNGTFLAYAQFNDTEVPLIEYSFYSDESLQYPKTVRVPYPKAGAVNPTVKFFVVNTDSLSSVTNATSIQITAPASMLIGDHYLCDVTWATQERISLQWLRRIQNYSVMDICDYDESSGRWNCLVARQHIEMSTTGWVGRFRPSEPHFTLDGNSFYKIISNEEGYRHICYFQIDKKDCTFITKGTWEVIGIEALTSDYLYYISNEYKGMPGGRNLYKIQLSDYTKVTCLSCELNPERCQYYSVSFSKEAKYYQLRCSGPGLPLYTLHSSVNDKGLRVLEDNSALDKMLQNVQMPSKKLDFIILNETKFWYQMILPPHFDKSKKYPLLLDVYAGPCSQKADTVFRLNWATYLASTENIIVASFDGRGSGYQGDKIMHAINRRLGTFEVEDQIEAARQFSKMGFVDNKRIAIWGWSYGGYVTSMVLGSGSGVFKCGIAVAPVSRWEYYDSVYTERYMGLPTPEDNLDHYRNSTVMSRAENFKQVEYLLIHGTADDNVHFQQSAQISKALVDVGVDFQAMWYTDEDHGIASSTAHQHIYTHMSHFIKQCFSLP
Substance,signal (relative fluorescence intensity) with rhFAP ([1]; comparison between probe iterations),FAP specificity (over PREP) ([1]; from recombinant enzyme assessment),cleavage by rhPREP [2],cleavage by rhPREP ([2]; listed as FAP-sp),cleavage by rhDPPIV (exopeptidase activity) [3],MALDI-TOF analysis of probe after activated neutrophil lysate [4],specificity over PREP [5]
"Lys(MethylRed)-Val-(D)Ser-Pro-Ser-Gln-Gly-Lys(5-FAM)-[Peg2-(D)Lys]3-NH2 [FAP-sP, reference compound]",improved signal characteristics,FAP specificity,no cleavage,no rhPREP cleavage,no cleavage,all FAP-sP probe was cleaved,–
VsPSQG,–,–,–,–,–,–,specificity over PREP
